Test [1] concerns the target T1, human CK1δ kinase domain (CK1δ ΔC, residues 1–317) (human, UniProt P48730 1-317).
T1 construct: N-terminal vector artifact left after TEV cleavage; human casein kinase 1 delta, catalytic domain, residues 1-317; also called CK1δ∆C; source: E. coli Rosetta (DE3), purified (Ni-NTA, TEV cleavage, GST column, SEC); not shown: His-GST, N-terminal, cleaved
T1 sequence: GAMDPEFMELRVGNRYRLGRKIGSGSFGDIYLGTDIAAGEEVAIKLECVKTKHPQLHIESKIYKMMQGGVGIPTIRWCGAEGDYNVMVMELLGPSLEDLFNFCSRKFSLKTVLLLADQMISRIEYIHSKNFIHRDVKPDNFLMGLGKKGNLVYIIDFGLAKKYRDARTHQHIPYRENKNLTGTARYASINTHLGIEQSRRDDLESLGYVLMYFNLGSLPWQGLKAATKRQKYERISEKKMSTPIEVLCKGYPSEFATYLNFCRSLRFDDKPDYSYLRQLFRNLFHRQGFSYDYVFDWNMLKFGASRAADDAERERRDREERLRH
The test can be described thus: pull-down; magnetic streptavidin beads hold biotinylated LIN-42 CK1BD + Tail WT or mutants (5 µM), with and without CK1δ ΔC (5 µM). The settings on record: both partners purified.

Test [2] addresses T2, biotinylated human CK1δ kinase domain (CK1δ ΔC, residues 1–317) (human, UniProt P48730 1-317, biotin on the N-terminus (Sortase A reaction of biotin-LPETGG with the N-terminal G of GAMDPEF)).
T2 construct: N-terminal vector artifact left after TEV cleavage; its first G is joined to the sortase peptide; human casein kinase 1 delta, catalytic domain, residues 1-317; After the sortase reaction the N-terminus should read biotin-LPET-GAMDPEF-; also called biotinylated CK1; not shown: His-GST, N-terminal, cleaved; biotin-LPETGG sortase peptide, N-terminal, kept
T2 sequence: T1 sequence
The test is described as follows: BLI; biotinylated CK1δ ΔC immobilised on streptavidin biosensors, LIN-42 fragments titrated; SEC buffer (50 mM Tris pH 7.5, 200 mM NaCl, 1 mM EDTA, 5% glycerol, 1 mM TCEP, 0.05% Tween-20) with 7.5 mM BSA as printed; Octet-RED96e; kinetic analysis, 2:1 heterogeneous ligand binding model, global fit. The settings on record: both partners purified.

This note sets out measurements from publication PMC12624140, “A conserved chronobiological complex times C. elegans development” (The EMBO Journal, 2025).

What is called Kd is the constant that tells how readily two partners part at equilibrium. A lower Kd goes with a tighter complex.

B1: biotinylated LIN-42 CK1BD + Tail (residues 402–598), wild type (domain or fragment, C. elegans)
chain: GAMDPEFLSYTQINCLENVHRLLKSQSRPESPAKQDEPFDEKKYPPQTPLTREALTLHTKRFEDEYKDTWCRRLKRLSDDVPSSPPAKRTTPIHWTSSSQNHYRTMAPAPPPPPGKNYQITYTPLDDLTDQKSTNTKSDVENVAYPISGSKFSTPMRLSIDGLLPRGATSTGGASPTSGTNSPPVFPKTSSSSSLLMLRDSQN
modifications: biotin on the N-terminus (Sortase A reaction of biotin-LPETGG with the N-terminal G of GAMDPEF)
notes: N-terminal vector artifact left after TEV cleavage; its first G is joined to the sortase peptide; LIN-42, C. elegans, residues 402-598 (CK1BD and C-terminal tail); After the sortase reaction the N-terminus should read biotin-LPET-GAMDPEF-; also called biotinylated LIN-42 CK1BD + Tail WT; wild-type LIN-42 protein; not shown: His-NusA, N-terminal, cleaved; biotin-LPETGG sortase peptide, N-terminal, …
For the molecule B1, the binding result in test [1] is reported as “binds”.

B2: LIN-42 CK1BD + Tail (residues 402–598) (domain or fragment, C. elegans)
chain: B1 chain
notes: N-terminal vector artifact left after TEV cleavage; LIN-42, C. elegans, residues 402-598 (CK1BD and C-terminal tail); numbers fit the longest isoform of 598 amino acids; also called wild-type LIN-42 CK1BD + Tail; source: E. coli Rosetta (DE3), purified (Ni-NTA, TEV cleavage, second Ni-NTA, SEC); not shown: His-NusA, N-terminal, cleaved
Molecule B2 came in with a Kd in test [2] of 309 nM.

B3: LIN-42 CK1BD (residues 402–475) (domain or fragment, C. elegans)
chain: GAMDPEFLSYTQINCLENVHRLLKSQSRPESPAKQDEPFDEKKYPPQTPLTREALTLHTKRFEDEYKDTWCRRLKRLSDDV
notes: N-terminal vector artifact left after TEV cleavage; LIN-42, C. elegans, residues 402-475 (SYQ/CK1BD-A and LT/CK1BD-B); numbers fit the longest isoform of 598 amino acids; also called truncated fragment of LIN-42 lacking the C-terminal tail; source: E. coli Rosetta (DE3), purified (Ni-NTA, TEV cleavage, second Ni-NTA, SEC); not shown: His-NusA, N-terminal, cleaved
B3 showed a Kd in test [2] of 303 nM.

B4: biotinylated LIN-42 CK1BD-∆A + Tail (residues 434–598) (domain or fragment, C. elegans)
chain: GAMDPEFDEKKYPPQTPLTREALTLHTKRFEDEYKDTWCRRLKRLSDDVPSSPPAKRTTPIHWTSSSQNHYRTMAPAPPPPPGKNYQITYTPLDDLTDQKSTNTKSDVENVAYPISGSKFSTPMRLSIDGLLPRGATSTGGASPTSGTNSPPVFPKTSSSSSLLMLRDSQN
modifications: biotin on the N-terminus (Sortase A reaction of biotin-LPETGG with the N-terminal G of GAMDPEF)
notes: N-terminal vector artifact left after TEV cleavage; its first G is joined to the sortase peptide; LIN-42, C. elegans, residues 434-598: CK1BD + Tail without the SYQ/CK1BD-A motif; also called biotinylated CK1BD + Tail mutant, SYQ/CK1BD-A deleted; not shown: His-NusA, N-terminal, cleaved; biotin-LPETGG sortase peptide, N-terminal, kept
With B4, in test [1], the binding result is on record as “binds”.

B5: LIN-42 CK1BD-∆A + Tail (residues 434–598) (domain or fragment, C. elegans)
chain: B4 chain
notes: N-terminal vector artifact left after TEV cleavage; LIN-42, C. elegans, residues 434-598: CK1BD + Tail without the SYQ/CK1BD-A motif; source: E. coli Rosetta (DE3), purified (Ni-NTA, TEV cleavage, second Ni-NTA, SEC); not shown: His-NusA, N-terminal, cleaved
With B5, the Kd in test [2] was ~3000 nM.
